Data from PMC8195445.

Assays:
[1] = target: GST-calmodulin C-half (CaM-C, residues 75–148) (UniProt P0DP23); assay: pull-down
[2] = target: GST-calmodulin N-half (CaM-N, residues 1–74) (UniProt P0DP23); assay: pull-down

Row | percent of the binding of IQ3R to Ca2+-CaM-F [1] [%] | percent of the binding of IQ3R to Ca2+-CaM-F [2] [%] | percent of the binding to Ca2+-CaM-F [2] [%] | Substance
1 | 15 | 27 |  | IQGAP1 IQ domain (amino acids 717–916) IQ3R mutant (from UniProt P46940 717-916) (domain or fragment)
2 |  |  | 32 | IQGAP1 wild-type IQ domain (amino acids 717–916) (from UniProt P46940 717-916) (domain or fragment)
